The text below walks through data of article PMC9700037.

The target in assay [1] is His6-tev-DPP9, Q86TI2. Nature of the assay: SEC-MALS; co-eluting SEC fractions of FIIND, DPP9 and free UPA co-expressed in Sf9 and co-purified; 0.5-1.0 mg/ml, Superose 6 increase (10/300) GL, buffer A without glycerol. Conditions: remark: other sources report otherwise.
In assay [2] the target is T1, biotin-MBP-NLRP1 wt (Avi-MBP-tev-NLRP1) (human), Q9C000.
T1 chain: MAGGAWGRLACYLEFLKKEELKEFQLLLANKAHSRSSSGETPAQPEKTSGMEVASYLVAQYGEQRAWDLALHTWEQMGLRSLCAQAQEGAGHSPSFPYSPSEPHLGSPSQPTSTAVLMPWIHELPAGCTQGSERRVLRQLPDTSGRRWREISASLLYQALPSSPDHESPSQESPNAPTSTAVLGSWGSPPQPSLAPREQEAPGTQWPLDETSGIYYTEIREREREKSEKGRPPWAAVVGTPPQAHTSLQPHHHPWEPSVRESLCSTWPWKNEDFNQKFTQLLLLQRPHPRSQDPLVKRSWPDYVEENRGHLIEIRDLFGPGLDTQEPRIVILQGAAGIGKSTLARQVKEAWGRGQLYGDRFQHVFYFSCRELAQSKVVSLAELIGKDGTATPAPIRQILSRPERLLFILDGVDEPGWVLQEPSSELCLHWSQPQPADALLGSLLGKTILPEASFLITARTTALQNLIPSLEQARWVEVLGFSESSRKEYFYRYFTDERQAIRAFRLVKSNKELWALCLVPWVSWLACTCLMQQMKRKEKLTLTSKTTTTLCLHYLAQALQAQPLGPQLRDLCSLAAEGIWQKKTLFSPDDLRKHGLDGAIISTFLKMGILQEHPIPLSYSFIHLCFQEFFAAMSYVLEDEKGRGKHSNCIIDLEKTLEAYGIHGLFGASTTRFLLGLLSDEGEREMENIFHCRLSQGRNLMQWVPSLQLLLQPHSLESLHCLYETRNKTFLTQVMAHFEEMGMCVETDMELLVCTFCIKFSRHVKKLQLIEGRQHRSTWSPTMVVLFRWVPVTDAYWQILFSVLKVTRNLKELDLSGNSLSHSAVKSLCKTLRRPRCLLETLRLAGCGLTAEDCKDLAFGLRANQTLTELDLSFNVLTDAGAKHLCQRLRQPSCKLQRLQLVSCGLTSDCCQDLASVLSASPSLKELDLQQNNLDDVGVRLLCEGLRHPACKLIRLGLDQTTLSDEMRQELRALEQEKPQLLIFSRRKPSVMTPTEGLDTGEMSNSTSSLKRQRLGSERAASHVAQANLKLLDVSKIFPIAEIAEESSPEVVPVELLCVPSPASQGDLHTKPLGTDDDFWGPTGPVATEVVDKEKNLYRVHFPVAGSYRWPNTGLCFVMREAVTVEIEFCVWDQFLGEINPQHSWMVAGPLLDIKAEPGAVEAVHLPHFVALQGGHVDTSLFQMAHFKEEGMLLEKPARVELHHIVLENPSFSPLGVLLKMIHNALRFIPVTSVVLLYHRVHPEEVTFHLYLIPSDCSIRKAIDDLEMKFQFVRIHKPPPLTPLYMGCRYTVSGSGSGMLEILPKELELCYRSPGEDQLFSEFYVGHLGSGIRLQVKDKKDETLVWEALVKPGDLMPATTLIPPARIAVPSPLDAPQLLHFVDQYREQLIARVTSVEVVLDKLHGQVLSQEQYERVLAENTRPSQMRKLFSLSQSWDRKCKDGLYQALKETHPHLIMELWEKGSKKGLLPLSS
Nature of the assay: SPR; 20-fold excess Val-boroPro (VbP); NLRP1 multimer. Conditions: enzyme; chains chain; biotin (on the Avi tag, BirA co-expressed); remark: other sources report otherwise. Background: SPR reads the build-up and loss of mass on a sensor chip optically.

Assay [3] has as its target His6-tev-DPP9, Q86TI2. Nature of the assay: SEC-MALS; co-eluting SEC fractions of FIIND and DPP9 co-expressed in Sf9 WITHOUT the free UPA construct, co-purified; 0.5-1.0 mg/ml, Superose 6 increase (10/300) GL, buffer A without glycerol. Conditions: remark: other sources report otherwise. Background: SEC sorts molecules by how far they enter the pores of the column.
Assay [4] concerns the target T1, biotin-MBP-NLRP1 wt (Avi-MBP-tev-NLRP1) …. Description: SPR; NLRP1 void (high MW) fraction. The settings on record: enzyme; chains chain; biotin (on the Avi tag, BirA co-expressed); remark: other sources report otherwise.
The target is the same in assay [5]. Description: SPR; Biotin-FLAG-NLRP1 (from HEK293T) or biotin-MBP-NLRP1 (from Sf9, multimer fraction) or biotin-MBP immobilised on a streptavidin chip; DPP9 injected at 78-2500 nM, single-cycle kinetics, 10 mM Hepes pH 7.5, 150 mM NaCl, 0.5 mM TCEP, 0.05% Tween-20. Conditions: remark: other sources report otherwise.
Assay [6] deals with T2, Biotin-FLAG-NLRP1 wt (human), Q9C000.
T2 chain: T1 chain
The description is as above. Conditions: remark: other sources report otherwise.

Usually stoichiometry N stands for a count of units in the complex or per binding partner. The Kd is the equilibrium constant for the complex coming apart. Read a high Kd as a looser complex.

B1: His6-tev-DPP9, Q86TI2 1-863 (protein)
chain: MATTGTPTADRGDAAATDDPAARFQVQKHSWDGLRSIIHGSRKYSGLIVNKAPHDFQFVQKTDESGPHSHRLYYLGMPYGSRENSLLYSEIPKKVRKEALLLLSWKQMLDHFQATPHHGVYSREEELLRERKRLGVFGITSYDFHSESGLFLFQASNSLFHCRDGGKNGFMVSPMKPLEIKTQCSGPRMDPKICPADPAFFSFINNSDLWVANIETGEERRLTFCHQGLSNVLDDPKSAGVATFVIQEEFDRFTGYWWCPTASWEGSEGLKTLRILYEEVDESEVEVIHVPSPALEERKTDSYRYPRTGSKNPKIALKLAEFQTDSQGKIVSTQEKELVQPFSSLFPKVEYIARAGWTRDGKYAWAMFLDRPQQWLQLVLLPPALFIPSTENEEQRLASARAVPRNVQPYVVYEEVTNVWINVHDIFYPFPQSEGEDELCFLRANECKTGFCHLYKVTAVLKSQGYDWSEPFSPGEDEFKCPIKEEIALTSGEWEVLARHGSKIWVNEETKLVYFQGTKDTPLEHHLYVVSYEAAGEIVRLTTPGFSHSCSMSQNFDMFVSHYSSVSTPPCVHVYKLSGPDDDPLHKQPRFWASMMEAASCPPDYVPPEIFHFHTRSDVRLYGMIYKPHALQPGKKHPTVLFVYGGPQVQLVNNSFKGIKYLRLNTLASLGYAVVVIDGRGSCQRGLRFEGALKNQMGQVEIEDQVEGLQFVAEKYGFIDLSRVAIHGWSYGGFLSLMGLIHKPQVFKVAIAGAPVTVWMAYDTGYTERYMDVPENNQHGYEAGSVALHVEKLPNEPNRLLILHGFLDENVHFFHTNFLVSQLIRAGKPYQLQIYPNERHSIRCPESGEHYEVTLLHFLQEYL
On to B1, for which the stoichiometry N was determined as 2 in the assay with His6-tev-DPP9, Q86TI2 [1] and 2 with His6-tev-DPP9, Q86TI2 [3]. For the same molecule, the Kd was determined as 168 nM in assay [2], 173 nM in assay [4], 140 nM in assay [5] and 155 nM in assay [6].
